Where “and” joins values, the source holds several entries; their conditions need not be identical. Identical values can stand only once. Blank lines part the entries; values can stand above or below the binder they belong to.
Legend:
peptide YY (PYY) = peptide YY (PYY) (UniProt P10082 29-64, limits assumed, fluorescently labeled (FAM or TAMRA) in FP assays, site not stated); assay: fluorescence polarization
Description: (§1) Fluorescence polarization binding assays were carried out in 96-well plates (Corning 3686), with two-fold serial dilution of designed peptide binders in the presence of 0.5 nM fluorescently labeled peptide targets. Protein and peptide were diluted from their stock concentration into 20 mM Tris-HCl pH 8, 100 mM NaCl, 0.1% v/v Tween 20, and the protein was titrated in 2-fold serial dilutions onto constant peptide. After incubating the peptide and binder for one hour at room temperature, the fluorescence polarization was measured at the excitation and emission wavelengths of the FAM dye (485/530 nm) or the TAMRA dye (530/590 nm), in a Synergy Neo2 multi-mode plate reader. Titrations were conducted in replicate, and the Kd was fitted with SciPy¹⁸. Specifically, curves were fit to N observations of an observed signal, Signalᵢ, at titrated concentrations according to the following equation: […]

neuropeptide Y (NPY) [1] = target: T1, neuropeptide Y (NPY) (UniProt P01303 29-64, fluorescently labeled (FAM or TAMRA) in FP assays, site not stated; biotinylated in yeast display); assay: fluorescence polarization
Description: as §1

secretin (SCT) = target: T2, secretin (SCT) (UniProt P09683 28-54, fluorescently labeled (FAM or TAMRA) in FP assays, site not stated); assay: fluorescence polarization
T2 peptide (looked up): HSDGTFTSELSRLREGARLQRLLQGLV
Description: as §1

glucagon (GCG) [2] = target: T3, glucagon (GCG) (UniProt P01275 53-81, fluorescently labeled (FAM or TAMRA) in FP assays, site not stated; biotinylated in yeast display); assay: fluorescence polarization
Description: as §1

neuropeptide Y (NPY) [3] = target: T1, neuropeptide Y (NPY); assay: fluorescence polarization titration (FIG. 6b)
Description: as §1

[4] = target: T4, parathyroid hormone (PTH) peptide (UniProt P01270 32-65, limits assumed, TAMRA label in FP assays (PTH-TAMRA), site not stated; biotinylated in yeast display); assay: fluorescence polarization, binder titrated onto labeled peptide
T4 construct: In the NanoBiT assay the peptide was genetically fused to lgBiT; also called PTH-TAMRA peptide
T4 peptide (looked up): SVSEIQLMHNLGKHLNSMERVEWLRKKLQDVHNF
Description: as §1

[5] = target: T4, parathyroid hormone (PTH) peptide; assay: FP against the NanoBiT estimate for the starting parametric binder
[6] = target: T5, Gastric inhibitory polypeptide (GIP) (UniProt P09681 52-93, fluorescently labeled (FAM or TAMRA) in FP assays, site not stated); assay: fluorescence polarization titration
T5 peptide (looked up): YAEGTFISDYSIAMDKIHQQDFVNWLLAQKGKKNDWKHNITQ
Description: as §1

[7] = target: T5, Gastric inhibitory polypeptide (GIP); assay: fluorescence polarization (FIG. 7b)
Description: as §1

[8] = target: T6, Glucagon-like peptide 1 (GLP1) (UniProt P01275 98-128, fluorescently labeled (FAM or TAMRA) in FP assays, site not stated); assay: fluorescence polarization titration
T6 peptide (looked up): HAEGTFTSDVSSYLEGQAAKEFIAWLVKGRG
Description: as §1

[9] = target: T6, Glucagon-like peptide 1 (GLP1); assay: fluorescence polarization (FIG. 7a)
Description: as §1

[10] = target: T4, parathyroid hormone (PTH) peptide; assay: fluorescence polarization
Description: as §1

[11] = target: PTH related peptide (PTHrp) (UniProt P12272 37-70, limits assumed, fluorescently labeled (FAM or TAMRA) in FP assays, site not stated); assay: fluorescence polarization
Description: as §1

glucagon (GCG) [12] = target: T3, glucagon (GCG); assay: fluorescence polarization titration (FIG. 6a)
Description: as §1

BIM BH3 peptide (Bim) = target: T7, BIM BH3 peptide (Bim) (UniProt O43521 141-166, limits assumed, fluorescently labeled (FAM or TAMRA) in FP assays, site not stated; biotinylated in yeast display); assay: fluorescence polarization
T7 construct: domain: BH3
Description: as §1

T3 sequence (P01275 53-81 limits assumed): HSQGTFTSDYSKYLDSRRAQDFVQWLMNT
Sequence of peptide YY (PYY) (P10082 29-64 limits assumed): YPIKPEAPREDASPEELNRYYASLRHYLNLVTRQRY
Sequence of PTH related peptide (PTHrp) (P12272 37-70 limits assumed): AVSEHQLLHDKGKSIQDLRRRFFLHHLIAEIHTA
T7 sequence (O43521 141-166 limits assumed): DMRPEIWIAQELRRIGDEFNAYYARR

B1: NPY_C5 (RF Diffusion/Partial diffusion), partially diffused NPY binder, SEQ ID NO: 9 (designed binder)
chain: GMEERRKELLEKLKKLKEEVVELFRELAQALRDGASKERLEEIRERAEKLAEEAKKVAEELEKLAEGDAVLQLYLAEAYALEAAALTIEAVAAAELGASKEELEKIKEKIEEALKKAEEAMKKALAEAKARGRERLVRLIEEARKEFEKLSKAIKELLEQV
binding result (peptide YY (PYY)): no binding | Kd (neuropeptide Y (NPY) [1]): 5.29 nM and 5.6 nM

B4: PTH_B10 (RFjoint), inpainted PTH binder, SEQ ID NO: 2 (designed binder)
chain: SFELLEKLIELSKELYEVAKKYIETGDPELKKKLEEILKKIEEAYKELLESDAHPLEKALAKLILAEAYVVKSFAYISSGKDLEKAQEYLDKAKEILEELLKLLEELKKEETDPEKLEIIEELEKIAEELLKEIEE
notes: Expressed in E. coli, purified on Ni-NTA and by SEC
Kd [4]: 6.1 nM | fold improvement in affinity over the starting PTH binder [5]: ~1000 fold

B7: GLP1_B04 (Sequence threading), SEQ ID NO: 7 (designed binder)
chain: SPEEEARRAAREAERAAREAREAARRLGDEESVRVAERLEREARRAERERDLELARRVLRAAEALRLALEGELLAREQGDELGVVVARMITLAARDSALGRGTPELARLLLRVARALLEGDLEEVVRSLAEIAKREIGTERALLAVEAIKLVALESIEEGDFETAELAIEKLREIAEEFEGTEVAEKAREAIEEIEKKKREAE
Kd [8]: 68.8 nM | Kd [9]: < 100 nM

B8: PTH_D08, fully diffused PTH binder (RF Diffusion), SEQ ID NO: 10 (designed binder)
chain: MREKLEEMLEEFNEVIDELIEITKEDAPELEELRERAEEAVENERLDELEEILDELEVIILEAMFRDLSAAIEMTKAKNDKEKLKELLKQLEELEKRIKELLERAKKRGNKKIIEKLEKLLKEVEKLKKEIEEYLK
Kd [10]: < 0.5 nM | binding result [11]: no binding

B9: PPY_A04 (RF Diffusion_flex), flexibly diffused PYY binder, SEQ ID NO: 12 (designed binder)
chain: GLEEAEKLLEEIFANFEEIVELIKKNIGTERGKKLLKVFVATVDLILARLEQGADLAELAELVKEIAELAKDEEGLEEAEKLVKELTAAR
Kd (peptide YY (PYY)): 24.5 nM

B10: GCG_A04 (RFjoint), inpainted GCG binder, SEQ ID NO: 3 (designed binder)
chain: MLDELFSLLNKMFELSDKYRELRKELRKAIESGAPEEELRELLEKMLEIAKKLLELTKELKKLVEDVLKNNPDPVERAKAVLLYAVGVHILYSESSELEVIAERLGFKDIAEKAKEIADKARELKEEVKRKLREIREEVPDPEIRKAAEEAIEMLESNDKRLKEFRKL
Kd (glucagon (GCG) [12]): 231 nM

Other lines, results leading:

fold weaker binding to SCT than to GCG (secretin (SCT)): 10 fold | binding result (glucagon (GCG) [2]): binds
B2: GCG_C09 (RF Diffusion/Partial diffusion), partially diffused GCG binder, SEQ ID NO: 8 (designed binder)
chain: SMEKLAEIMQEIIEAYQEVKDAFFKFIKAVHEGAPEEELKKYLEKMKEALEKMKELLERLEKEAKKVIEENKDKKLELKVLLMLRLAYLLLKVSIELTKIAAEKLGDKELVEELEKESKEVEKKIKELEERIKKLLEEVDDEELKEAYKEVEEMEKEAEKFLEKMRKV

Kd (neuropeptide Y (NPY) [3]): 3500 nM
B3: NPY_A9 (RFjoint), inpainted NPY binder, SEQ ID NO: 4 (designed binder)
chain: GAAEKLAELYEKFKALREKALEVLKKAVEALENKADKETLLKLIKELKELAEKFEELAEEFERNAGESTTASLNATAAYMARIGLLAALLALAKAAGVPEEELEEIKRRIEETAKRAIEAAERLKALAEARGDTKHVAVGVEAVRMATELYELAQKIIDAF

Kd [6]: 6.96 nM | Kd [7]: < 100 nM
B5: GIP_A08 (Sequence threading), SEQ ID NO: 6 (designed binder)
chain: SPKEKAERLIKEAKEAAEKAKEAAERSGLEEAKKAAEELTKLLEEAAARVAADPEDETKLRALEKIVEAAKEAVKALEVAIESGDEQLIRAALSLVEAAVHLAKALLAKPESPLVDFGFELLKLAAKTLAAYAEGEDVDKIALKLKAISAMAEALRLALAGDLERAARAAEEAVRYAIEAGDKELLRLAAEVAAYIARLAEEAGLEEVARRAREAAERAREAAK

Kd (secretin (SCT)): 3.95 nM and 2.7 nM | Kd (glucagon (GCG) [2]): 12 nM | fold selectivity for SCT over GCG (glucagon (GCG) [2]): 4 fold
B6: SCT_A02 (Sequence threading), threaded SCT binder, SEQ ID NO: 5 (designed binder)
chain: SEELEERLREARERLEEARERLEEAREEGDLREMARALLEEARAVLEIARVAAEAGDDEALREAARRAGEVIRRAGEVGLRAAEEGDTETIREAMLAILEAQRASAVIALHLARDDPEVAEALRVIERLLRTAERALREGQLEVARLATEAVEALADAILRAREIGRPELVREAARLAEEARRLLEAALEALRAGDEEGARERLARARELIREIRERVRRA
notes: also called SCT design

Kd (BIM BH3 peptide (Bim)): < 0.5 nM
B11: BIM_E09 (RF Diffusion), fully diffused Bim binder, SEQ ID NO: 11 (designed binder)
chain: EEERKEKREKVRAGLKRAIAELPAEVAARCLALLDDASDEEFIEAVLEVLEAMREALVAMAREGRLDAVRRATSHINEVLVDAAELALEKGREYFRRLCLIVCDMMIELIRLEPEQTPELRRIRERLEEIRRRLE

Reference: patent publication US20260201015A1 (University of Washington, published 2026)
